Source: patent US20160346402A1 (Bayer, published 2016)

How the values were obtained:
[1] = biological target: T1, TPP-2607, TweakR-ECD-34-68-hIgGFc-His-S37A (human); experiment: alanine scan ELISA: IgG coated 1 µg/ml, HEK293 supernatant of TWEAKR(34-68)-Fc construct, anti-HIS-HRP
T1 construct: Used as HEK293 supernatant; also called S37A mutein

[2] = biological target: T2, TPP-2608, TweakR-ECD-34-68-hIgGFc-His-R38A (human); experiment: as above
T2 construct: Used as HEK293 supernatant; also called R38A mutein

[3] = biological target: T3, TPP-2609, TweakR-ECD-34-68-hIgGFc-His-S40A (human); experiment: as above
T3 construct: Used as HEK293 supernatant; also called S40A mutein

[4] = biological target: T4, TPP-2610, TweakR-ECD-34-68-hIgGFc-His-S41A (human); experiment: as above
T4 construct: Used as HEK293 supernatant; also called S41A mutein

[5] = biological target: T5, TPP-2611, TweakR-ECD-34-68-hIgGFc-His-W42A (human); experiment: as above
T5 construct: Used as HEK293 supernatant; also called W42A mutein (34-68)

[6] = biological target: T6, TPP-2612, TweakR-ECD-34-68-hIgGFc-His-S43A (human); experiment: as above
T6 construct: Used as HEK293 supernatant; also called S43A mutein

[7] = biological target: T7, TPP-2613, TweakR-ECD-34-68-hIgGFc-His-D45A (human); experiment: as above
T7 construct: Used as HEK293 supernatant; also called D45A mutein

[8] = biological target: T8, TPP-2615, TweakR-ECD-34-68-hIgGFc-His-K48A (human); experiment: as above
T8 construct: Used as HEK293 supernatant; also called K48A mutein

[9] = biological target: T9, TPP-2616, TweakR-ECD-34-68-hIgGFc-His-D51A (human); experiment: as above
T9 construct: Used as HEK293 supernatant; also called D51A mutein

[10] = biological target: T10, TPP-2617, TweakR-ECD-34-68-hIgGFc-His-S54A (human); experiment: as above
T10 construct: Used as HEK293 supernatant; also called S54A mutein

[11] = biological target: T11, TPP-2618, TweakR-ECD-34-68-hIgGFc-His-R56A (human); experiment: as above
T11 construct: Used as HEK293 supernatant; also called R56A mutein

[12] = biological target: T12, TPP-2619, TweakR-ECD-34-68-hIgGFc-His-R58A (human); experiment: as above
T12 construct: Used as HEK293 supernatant; also called R58A mutein

[13] = biological target: T13, TPP-2620, TweakR-ECD-34-68-hIgGFc-His-P59A (human); experiment: as above
T13 construct: Used as HEK293 supernatant; also called P59A mutein

[14] = biological target: T14, TPP-2621, TweakR-ECD-34-68-hIgGFc-His-H60A (human); experiment: as above
T14 construct: Used as HEK293 supernatant; also called H60A mutein

[15] = biological target: T15, TPP-2622, TweakR-ECD-34-68-hIgGFc-His-S61A (human); experiment: as above
T15 construct: Used as HEK293 supernatant; also called S61A mutein

[16] = biological target: T16, TPP-2623, TweakR-ECD-34-68-hIgGFc-His-D62A (human); experiment: as above
T16 construct: Used as HEK293 supernatant; also called D62A mutein

[17] = biological target: T17, TPP-2624, TweakR-ECD-34-68-hIgGFc-His-F63A (human); experiment: as above
T17 construct: Used as HEK293 supernatant; also called F63A mutein

[18] = biological target: T18, TPP-2625, TweakR-ECD-34-68-hIgGFc-His-L65A (human); experiment: as above
T18 construct: Used as HEK293 supernatant; also called L65A mutein

[19] = biological target: T19, TPP-2202, TWEAKR-ECD-28-80-hIgGFc-His (human); experiment: ELISA: TPP-2202 (TWEAKR 28-80-Fc) coated at 1 µg/ml; biotinylated IgG at 0.08 µg/ml (open bars) and 0.3 µg/ml (solid bars; legend of FIG. 3 prints 0.03); streptavidin-HRP, Amplex Red; Y = signal [Rfu]
T19 construct: also called TWEAKR-Fc fusion protein; full-length ectodomain Fc fusion
T19 sequence (chain, as listed by the source limits assumed): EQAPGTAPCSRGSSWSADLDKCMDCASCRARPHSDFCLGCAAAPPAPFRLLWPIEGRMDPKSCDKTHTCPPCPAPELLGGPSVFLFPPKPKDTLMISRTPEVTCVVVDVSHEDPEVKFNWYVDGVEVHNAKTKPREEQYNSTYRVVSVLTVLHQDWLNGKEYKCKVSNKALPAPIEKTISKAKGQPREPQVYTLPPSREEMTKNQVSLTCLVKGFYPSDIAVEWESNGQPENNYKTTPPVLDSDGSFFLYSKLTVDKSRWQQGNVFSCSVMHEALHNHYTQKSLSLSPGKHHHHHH
Procedure: FIG. 3: Interaction of the TWEAKR ectodomain with antibodies and reference antibodies. […] Detection was carried out using streptavidin-HRP and Amplex Red substrate.
Detection was carried out using streptavidin-HRP and Amplex Red substrate. IgGs were biotinylated using an about 2-fold molar excess of biotin-LC-NHS (Pierce; Cat. No. 21347) according to the instructions of the manufacturer and desalted using Zeba desalting columns (Pierce; Cat. No. 89889).

binding result [1]: no binding
binding result [2]: no binding
binding result [3]: no binding
binding result [4]: no binding
binding result [5]: no binding
binding result [6]: no binding
binding result [7]: no binding
binding result [8]: no binding
binding result [9]: no binding
binding result [10]: no binding
binding result [11]: no binding
binding result [12]: no binding
binding result [13]: no binding
binding result [14]: no binding
binding result [15]: no binding
binding result [16]: no binding
binding result [17]: no binding
binding result [18]: no binding
binding result [19]: binds
B1: P4A8(TPP-1324) (antibody, human IgG1, kappa, V domains shown)
VH: QVQLVQSGAEVKKPGASVKVSCKGSGYTFTDYGMHWVRQAPGQGLEWMGVISTYNGYTNYNQKFKGRVTMTVDKSTSTAYMELRSLRSDDTAVYYCARAYYGNLYYAMDYWGQGTLVTVSS
VL: DIVLTQSPASLAVSLGQRATISCRASKSVSTSSYSYMHWYQQKPGQPPKLLIKYASNLESGVPARFSGSGSGTDFSLNIHPMEEDDTAMYFCQHSRELPFTFGGGTKLEIKR
notes: Comparative antibody; variable domains from WO2009/140177 with human IgG1 constant region added
